Source: patent publication US20210388082A1 (NEWBIO THERAPEUTICS, published 2021)
Numbering of substitutions follows the chain as printed.

T1: CD79b on the surface of human lymphoma cell lines (human, UniProt P40259 29-229)
T1 sequence (looked up): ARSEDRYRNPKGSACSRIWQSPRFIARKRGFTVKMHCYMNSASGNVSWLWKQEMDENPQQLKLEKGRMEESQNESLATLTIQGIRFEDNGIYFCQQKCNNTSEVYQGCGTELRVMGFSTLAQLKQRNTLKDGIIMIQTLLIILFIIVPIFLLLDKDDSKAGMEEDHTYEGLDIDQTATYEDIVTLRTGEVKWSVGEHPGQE

T2: recombinant human CD79b extracellular domain protein (human, UniProt P40259 29-159)
T2 construct: Bought protein; also called CD79b ECD; human CD79b-ECD
T2 sequence: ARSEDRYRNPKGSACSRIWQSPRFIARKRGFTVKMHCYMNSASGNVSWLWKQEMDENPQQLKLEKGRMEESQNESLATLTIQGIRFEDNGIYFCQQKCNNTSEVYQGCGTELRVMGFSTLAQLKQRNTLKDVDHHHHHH

B1: recombinant chimeric antibody 104E1 conjugated to BMP-vcMMAE (other)
VH: QVQLQQSGSELARPGASVKLSCKTSGNTFTSYGINWVKQRTGQGLEWIGEIFPRSGNIYYNEKFKGKATLTADKSSSTAYMELRSLTSEDSAVYFCAKGGTGDFDYWGQGTTLTVSS
VL: DVLMTQTPLSLPVSLGDQASISCRSSQNIVHSDGNTYLEWYLQKPGQSPKLLIYKVSFRLSGVPDRFSGSGSGTDFTLKIRRVEAEDLGTYYCFQGSHVPWTFGGGTKLEIK
modifications: antibody conjugated to BMP-vcMMAE (linker-drug 1); positions not given
B2: murine anti-CD79b monoclonal antibody 104E1 (antibody, V domains shown)
VH: B1 VH
VL: B1 VL
notes: Mouse hybridoma antibody, tested as supernatant; also called murine antibody 104E1
B3: recombinant human-mouse chimeric antibody 104E1 (antibody, V domains shown)
VH: B1 VH
VL: B1 VL
notes: also called chimeric 104E1
B4: Humanized antibody AS11259 (antibody, human IgG1, kappa)
heavy: not shown
light: DVVMTQSPLSLPVTLGQPASISCRSSQNIVHSDGNTYLEWYQQRPGQSPRLLIYKVSFRLSGVPDRFSGSGSGTDFTLKISRVEAEDVGVYYCFQGSHVPWTFGGGTKVEIKRTVAAPSVFIFPPSDEQLKSGTASVVCLLNNFYPREAKVQWKVDNALQSGNSQESVTEQDSKDSTYSLSSTLTLSKADYEKHKVYACEVTHQGLSSPVTKSFNRGEC
notes: Humanized IgG1 / kappa; also called naked antibody AS11259
B5: Humanized antibody AS11164 (antibody, human IgG1, kappa, V domains shown)
VH: QVQLVQSGAEVKKPGSSVKVSCKTSGNTFTSYGINWVRQAPGQGLEWMGEIFPRSGNIYYNEKFKGKVTITADKSTSTAYMELSSLRSEDTAVYYCAKGGTGDFDYWGQGTLVTVSS
VL: DVLMTQSPLSLPVTLGQPASISCRSSQNIVHSDGNTYLEWYQQRPGQSPKLLIYKVSFRLSGVPDRFSGSGSGTDFTLKISRVEAEDVGVYYCFQGSHVPWTFGGGTKVEIKR
notes: Humanized IgG1 / kappa
B6: Humanized antibody AS11254 (antibody, human IgG1, kappa, V domains shown)
VH: B5 VH with S16A, R38K, K67R
VL: B5 VL with L3V, K50R
notes: Humanized IgG1 / kappa
B7: Humanized antibody AS11252 (antibody, human IgG1, kappa)
heavy: not shown
light: B4 light
notes: Humanized IgG1 / kappa
B8: Humanized antibody AS11161 (antibody, human IgG1, kappa, V domains shown)
VH: B5 VH
VL: B5 VL with L3V, K50R
notes: Humanized IgG1 / kappa

Experiments:
[1] = target: T1, CD79b on the surface of human lymphoma …; test: cell-based or functional assay
[2] = target: T1, CD79b on the surface of human lymphoma …; test: cell-based or functional assay; remark: listed apart in the source
[3] = target: T1, CD79b on the surface of human lymphoma …; test: cell-based or functional assay; remark: listed apart in the source
[4] = target: T2, recombinant human CD79b extracellular …; test: ELISA, plate coated with human CD79b-ECD
Procedure: (§1) The experimental procedure was as follows: 96-well plates (Corning, CAT #9018) were coated with 100 μL/well of antigen (human CD79b-ECD, novoprotein, CA29) at 1 μg/mL in PBS (10 mM phosphate, 138 mM NaCl, pH 7.2) at 4° C. overnight, and then blocked with 250 ul/well of blocking solution (PBS+1% BSA (Sangon, CAT #A0332)) for one to three hours at 25° C. Plates were washed 3 times with a washing solution (PBS+0.05% Tween-20 (Sangon, CAT #TB0560)), and then incubated with 100 μL of anti-CD79b antibody in serial dilutions in blocking solution in duplicate wells at 25° C. for 2 h. Plates were washed 3 times with washing solution and then incubated with 100 μL of 1:10,000 the secondary antibody (anti-mouse IgG (Fc)-HRP, Sigma, CAT #A00168 or anti-human IgG F(ab′)2-HRP, Sigma, CAT #A0293) at 25° C. for 1 h. Plates were washed 3 times with washing solution, and then 100 μL of TMB (Sangon, CAT #TB0954) was added to each well and incubated at 25° C. until color developed (approximately 15 min). Reactions were stopped by addition of 100 μl/well stop solution (1N H2SO4). OD450/630 nm was read on plate reader in 10 minutes.

[5] = target: T2, recombinant human CD79b extracellular …; test: SPR (Biacore T200), antibody on CM5 chip, CD79b ECD as analyte, 25 C
Procedure: The assay was performed on a Biacore T200 (GE) machine, and the antibody to be tested was diluted to 10 ug/ml with HBS-EP (GE, BR100826) buffer according to the instruction of Amine-Coupling Kit (GE, BR-1000-50). The antibody to be tested was immobilized on a CM5 chip (GE, BR-1006-68) at a fixing time of 300 sec and a flow rate of 10 ul/min. Different concentrations (0.25 nm, 0.5 nm, 1 nm, 2 nm, 4 nm, 8 (×2) nm, 16 nm) of the recombinant CD79b extracellular domain protein diluted with HBS buffer gradient was subjected to capture reaction by Kinetics program, with the binding time of the antigen-antibody set to 300 seconds, dissociation time set to 900 seconds, flow rate of the antigenic protein to 30 ul/min. The dissociation curves were fitted to calculate the KD values of the different antibodies. The above experiments were all carried out at 25° C.
The affinity of the antibody after humanization was tested by the method described in Section 4 of the “Materials and Methods” section.

[6] = target: T2, recombinant human CD79b extracellular …; test: ELISA, plate coated with human CD79b-ECD; remark: listed apart in the source
Procedure: as §1
The in vitro binding activity of the anti-CD79b humanized antibody to the extracellular domain of human CD79b was examined by ELISA as described in Section 1 of the Materials and Methods section.

[7] = target: T2, recombinant human CD79b extracellular …; test: indirect ELISA, plate coated with CD79b antigen
Procedure: An ELISA anti-antibody was added to bind with the antibody or ADC antibody bound to the solid phase antigen, and unbound anti-antibody was removed by washing. Substrate solution was added, and then the optical density (OD) value at 450 nm/630 nm was read with a microplate reader T, based on which a curve was plotted, and the EC₅₀ was calculated.

Row | Binder | Kd [5] | koff [5] | kon [5] | EC50 [6] | also measured
1 | B1 | – | – | – | – | Inhibitory activity on lymphoma cell proliferation IC50, BJAB [1]: 0.0104 µg/mL; Inhibitory activity on lymphoma cell proliferation IC50, DoHH2 [1]: 0.00575 µg/mL; Inhibitory activity on lymphoma cell proliferation IC50, Granta-519 [1]: 0.0208 µg/mL; Inhibitory activity on lymphoma cell proliferation IC50, Ramos [1]: 0.00602 µg/mL; Inhibitory activity on lymphoma cell proliferation IC50, SU-DHL-4 [1]: 0.0119 µg/mL; Inhibitory activity on lymphoma cell proliferation IC50, U-698-M [1]: 0.00952 µg/mL; Inhibitory activity on lymphoma cell proliferation IC50, WSU-DLCL2 [1]: 0.0182 µg/mL; Inhibitory effect on the lymphoma cell proliferation IC50, BJAB [2]: 0.00881 µg/mL; Inhibitory effect on the lymphoma cell proliferation IC50, DoHH2 [2]: 0.00426 µg/mL; Inhibitory effect on the lymphoma cell proliferation IC50, Granta-519 [2]: 0.0296 µg/mL; Inhibitory effect on the lymphoma cell proliferation IC50, Ramos [2]: 0.00442 µg/mL; Inhibitory effect on the lymphoma cell proliferation IC50, SU_DHL-4 [2]: 0.00946 µg/mL; Inhibitory effect on the lymphoma cell proliferation IC50, U-698-M [2]: 0.0159 µg/mL; Inhibitory effect on the lymphoma cell proliferation IC50, WSU-DLCL2 [2]: 0.0168 µg/mL
2 | B2 | – | – | – | – | IC50 against BJAB (secondary ADC assay with HB58-ADC) [3]: 0.0093 µg/mL; EC50 [4]: 0.0149 µg/mL
3 | B3 | 0.0341 nM | 5.52e-05 s⁻¹ | 1.62e+06 M⁻¹ s⁻¹ | – | –
4 | B4 | 0.0216 nM | 3.63e-05 s⁻¹ | 1.68e+06 M⁻¹ s⁻¹ | 0.0583 µg/mL | EC50 [7]: 0.0178 µg/mL
5 | B5 | 0.0128 nM | 2.44e-05 s⁻¹ | 1.91e+06 M⁻¹ s⁻¹ | 0.064 µg/mL | –
6 | B6 | 0.0187 nM | 2.87e-05 s⁻¹ | 1.53e+06 M⁻¹ s⁻¹ | 0.0501 µg/mL | –
7 | B7 | 0.0285 nM | 4.22e-05 s⁻¹ | 1.48e+06 M⁻¹ s⁻¹ | 0.0499 µg/mL | –
8 | B8 | 0.014 nM | 2.84e-05 s⁻¹ | 2.02e+06 M⁻¹ s⁻¹ | 0.0431 µg/mL | –
